From PMC8809517, “Cofactor-independent RNA editing by a synthetic S-type PPR protein”
Where a chain is given by its changes, count along the chain named.

Key:
Test in all cases: high-throughput RNA pulldown from lysate on Ni-NTA beads; HRP: 50 mM Tris pH 8, 150 mM NaCl, 1 mM beta-mercaptoethanol, 50 ug/ml BSA, 3 ug/ml yeast RNA, 0.5% heparin; ITC and FP: Tris pH 8, 200 mM KCl, 5% glycerol; MST: 50 mM Tris pH 8, 200 mM NaCl, 1 mM DTT, BSA, heparin, 0.05% Tween 20
Conditions in all cases: tags: N-terminal His-eGFP
[1] = molecular target: T1, GFP-9S library array, motif 4 ND D124E (synthetic construct, D124E)
T1 chain: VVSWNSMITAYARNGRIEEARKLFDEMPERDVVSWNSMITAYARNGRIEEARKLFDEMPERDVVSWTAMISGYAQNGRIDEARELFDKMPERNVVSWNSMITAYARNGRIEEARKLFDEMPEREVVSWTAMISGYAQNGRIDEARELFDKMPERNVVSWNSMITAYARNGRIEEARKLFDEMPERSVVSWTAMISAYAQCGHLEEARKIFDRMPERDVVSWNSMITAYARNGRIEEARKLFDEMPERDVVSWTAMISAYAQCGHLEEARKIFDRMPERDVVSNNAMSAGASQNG

[2] = molecular target: T2, GFP-9S library array, motif 4 ND N98P;D124E (synthetic construct, N98P;D124E)
T2 chain: T1 chain with N98P

[3] = molecular target: T3, GFP-9S library array, motif 4 ND N98S;D124W (synthetic construct, N98S;D124W)
T3 chain: T1 chain with N98S, E124W

[4] = molecular target: T4, GFP-9S library array, motif 4 ND N98H;D124V (synthetic construct, N98H;D124V)
T4 chain: T1 chain with N98H, E124V

[5] = molecular target: T5, GFP-9S library array, motif 4 ND N98C;D124R (synthetic construct, N98C;D124R)
T5 chain: T1 chain with N98C, E124R

## AUUAGACGUGA (ssRNA) [Cy5-rpoA-G]
[1]; label: 5' Cy5
  Kd: 276 nM
[2]; label: 5' Cy5
  Kd: 220 nM
[3]; label: 5' Cy5
  Kd: 126 nM
[4]; label: 5' Cy5
  Kd: 95.2 nM
[5]; label: 5' Cy5
  Kd: 54.9 nM

## AUUAUACGUGA (ssRNA) [IR-rpoA-U]
[1]; label: 5' IRDye 800CW
  Kd: 3.54 nM
[2]; label: 5' IRDye 800CW
  Kd: 309 nM
[3]; label: 5' IRDye 800CW
  Kd: 156 nM
[4]; label: 5' IRDye 800CW
  Kd: 57.3 nM
[5]; label: 5' IRDye 800CW
  Kd: 96.8 nM

## AUUAAACGUGA (ssRNA) [IR-rpoA-A]
[1]; label: 5' IRDye 800CW
  Kd: 139 nM
[2]; label: 5' IRDye 800CW
  Kd: 386 nM
[3]; label: 5' IRDye 800CW
  Kd: 218 nM
[4]; label: 5' IRDye 800CW
  Kd: 115 nM
[5]; label: 5' IRDye 800CW
  Kd: 44.5 nM

## AUUACACGUGA (ssRNA) [Cy5-rpoA]
[1]; label: 5' Cy5
  Kd: 10.5 nM
[2]; label: 5' Cy5
  Kd: 204 nM
[3]; label: 5' Cy5
  Kd: 90.7 nM
[4]; label: 5' Cy5
  Kd: 81.3 nM
[5]; label: 5' Cy5
  Kd: 160 nM
